Measurements published in paper PMC6269424.

How the values were obtained:
[1] = phospho-PPARγ western blot of adipose tissue; settings: glycan lost; control: HFD-fed Con (OGTflox) mice
[2] = western blot of adipose tissue; settings: glycan lost; control: HFD-fed Con (OGTflox) mice

B1: PPARγ2: adipocyte-specific OGT knockout (FKO) (protein)
parent chain: MGETLGDSPVDPEHGAFADALPMSTSQEITMVDTEMPFWPTNFGISSVDLSVMEDHSHSFDIKPFTTVDFSSISAPHYEDIPFTRADPMVADYKYDLKLQEYQSAIKVEPASPPYYSEKTQLYNRPHEEPSNSLMAIECRVCGDKASGFHYGVHACEGCKGFFRRTIRLKLIYDRCDLNCRIHKKSRNKCQYCRFQKCLAVGMSHNAIRFGRMPQAEKEKLLAEISSDIDQLNPESADLRALAKHLYDSYIKSFPLTKAKARAILTGKTTDKSPFVIYDMNSLMMGEDKIKFKHITPLQEQSKEVAIRIFQGCQFRSVEAVQEITEYAKNIPGFINLDLNDQVTLLKYGVHEIIYTMLASLMNKDGVLISEGQGFMTREFLKNLRKPFGDFMEPKFEFAVKFNALELDDSDLAIFIAVIILSGDRPGLLNVKPIEDIQDNLLQALELQLKLNHPESSQLFAKVLQKMTDLRQIVTEHVQLLHVIKKTETDMSLHPLLQEIYKDLY
For B1, the “other: Ser112 phosphorylation” value [1] was “increases” and the expression_or_secretion [2] was “decreases”.
